T1: recombinant polyhistidine tagged mouse FcγRI (R&D Systems) (mouse, UniProt P26151 25-297)
T1 construct: Bought; also called murine FcγRI
T1 sequence (looked up): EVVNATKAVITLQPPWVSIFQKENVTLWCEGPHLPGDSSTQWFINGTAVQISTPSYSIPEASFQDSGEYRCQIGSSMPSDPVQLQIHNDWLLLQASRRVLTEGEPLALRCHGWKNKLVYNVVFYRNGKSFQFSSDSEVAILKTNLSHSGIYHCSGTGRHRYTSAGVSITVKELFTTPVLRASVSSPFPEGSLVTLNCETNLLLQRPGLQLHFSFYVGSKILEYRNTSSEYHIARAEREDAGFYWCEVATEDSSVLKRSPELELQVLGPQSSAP

T2: recombinant polyhistidine tagged mouse FcγRIII (R&D Systems) (mouse, UniProt P08508 31-215)
T2 construct: Bought
T2 sequence (looked up): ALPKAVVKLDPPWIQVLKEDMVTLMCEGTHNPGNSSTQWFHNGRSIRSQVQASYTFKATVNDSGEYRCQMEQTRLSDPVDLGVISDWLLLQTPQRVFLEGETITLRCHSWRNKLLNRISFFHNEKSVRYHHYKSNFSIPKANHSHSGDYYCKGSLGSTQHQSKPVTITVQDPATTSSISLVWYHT

T3: recombinant polyhistidine tagged mouse FcγRIV (R&D Systems) (mouse, UniProt A0A0B4J1G0 21-203)
T3 construct: Bought
T3 sequence: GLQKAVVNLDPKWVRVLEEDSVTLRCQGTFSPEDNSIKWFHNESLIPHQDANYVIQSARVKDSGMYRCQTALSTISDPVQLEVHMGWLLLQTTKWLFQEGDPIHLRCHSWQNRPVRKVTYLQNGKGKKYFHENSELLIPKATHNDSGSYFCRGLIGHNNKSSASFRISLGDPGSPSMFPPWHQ

T4: recombinant polyhistidine tagged mouse FcγRII (R&D Systems) (mouse, UniProt P08101 40-217, limits assumed)
T4 construct: Bought; also called FcRII
T4 sequence (looked up): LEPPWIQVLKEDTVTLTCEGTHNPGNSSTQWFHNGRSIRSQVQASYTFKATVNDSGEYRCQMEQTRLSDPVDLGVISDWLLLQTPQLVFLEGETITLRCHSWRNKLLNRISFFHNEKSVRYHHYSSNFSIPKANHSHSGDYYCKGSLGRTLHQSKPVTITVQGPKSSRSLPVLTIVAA

B1: YB2/0-CNTO 860 WT (antibody, human IgG1, kappa)
heavy: not shown
light: DIQMTQSPSSLSASVGDRVTITCKASQDIRKYLNWYQQKPGKAPKLLIYYATSLADGVPSRFSGSGSGTDYTFTISSLQPEDIATYYCLQHGESPYTFGQGTKLEITRTVAAPSVFIFPPSDEQLKSGTASVVCLLNNFYPREAKVQWKVDNALQSGNSQESVTEQDSKDSTYSLSSTLTLSKADYEKHKVYACEVTHQGLSSPVTKSFNRGEC
modifications: Heavy chain N297 carries the YB2/0-type N-linked glycan (40-60% fucosylated); not carried by the letters.
notes: Anti-human tissue factor human IgG1/kappa; stably expressed in rat YB2/0 cells (p2401/p2402; YB2/0 Abs typically 40-60% fucosylated), purified by protein A; also called WT (YB2/0 cell-derived); WT from YB2/0 cells; copies: 2 + 2
B2: CHO-CNTO 860 I332E (antibody)
heavy: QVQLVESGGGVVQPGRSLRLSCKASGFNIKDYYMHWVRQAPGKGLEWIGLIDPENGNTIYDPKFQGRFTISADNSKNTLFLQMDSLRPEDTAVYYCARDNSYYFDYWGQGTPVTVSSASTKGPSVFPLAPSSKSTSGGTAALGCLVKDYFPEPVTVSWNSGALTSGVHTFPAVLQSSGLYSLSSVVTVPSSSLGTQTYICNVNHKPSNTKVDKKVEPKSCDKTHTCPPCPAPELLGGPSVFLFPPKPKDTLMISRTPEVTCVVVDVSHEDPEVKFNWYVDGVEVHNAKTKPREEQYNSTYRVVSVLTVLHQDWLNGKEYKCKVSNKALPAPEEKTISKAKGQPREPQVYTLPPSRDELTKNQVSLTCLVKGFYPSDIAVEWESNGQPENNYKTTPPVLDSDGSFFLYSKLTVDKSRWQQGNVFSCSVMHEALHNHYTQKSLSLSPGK
light: B1 light
modifications: N-linked glycan at Asn297 of the heavy chain (CHO-type, highly fucosylated); not carried by the letters
notes: IgG1/kappa Fc variant; transiently expressed in CHO cells (p4157/p4146); also called I332E (CHO cell-derived); I332E from CHO cells; copies: 2 + 2
B3: CHO-CNTO 860 A330Y (antibody, human IgG1, kappa)
heavy: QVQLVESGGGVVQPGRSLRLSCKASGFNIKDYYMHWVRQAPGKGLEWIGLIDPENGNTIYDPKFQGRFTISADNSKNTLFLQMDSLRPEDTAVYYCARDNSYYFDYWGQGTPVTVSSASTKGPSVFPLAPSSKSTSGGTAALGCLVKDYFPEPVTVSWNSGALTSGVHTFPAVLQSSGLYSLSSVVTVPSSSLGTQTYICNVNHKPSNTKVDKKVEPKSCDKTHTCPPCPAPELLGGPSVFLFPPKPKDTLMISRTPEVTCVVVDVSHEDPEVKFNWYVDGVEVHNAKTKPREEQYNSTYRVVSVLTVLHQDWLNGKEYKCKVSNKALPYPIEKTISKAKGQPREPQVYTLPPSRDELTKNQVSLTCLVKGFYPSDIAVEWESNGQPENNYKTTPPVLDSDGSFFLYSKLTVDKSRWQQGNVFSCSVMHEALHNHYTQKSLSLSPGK
light: B1 light
modifications: N-linked glycan at Asn297 of the heavy chain (CHO-type, highly fucosylated); not carried by the letters
notes: IgG1/kappa Fc variant; transiently expressed in CHO cells (p4183/p4146); EU numbering; also called A330Y (CHO cell-derived); copies: 2 + 2
B4: CHO-CNTO 860 A330I (antibody, IgG1)
heavy: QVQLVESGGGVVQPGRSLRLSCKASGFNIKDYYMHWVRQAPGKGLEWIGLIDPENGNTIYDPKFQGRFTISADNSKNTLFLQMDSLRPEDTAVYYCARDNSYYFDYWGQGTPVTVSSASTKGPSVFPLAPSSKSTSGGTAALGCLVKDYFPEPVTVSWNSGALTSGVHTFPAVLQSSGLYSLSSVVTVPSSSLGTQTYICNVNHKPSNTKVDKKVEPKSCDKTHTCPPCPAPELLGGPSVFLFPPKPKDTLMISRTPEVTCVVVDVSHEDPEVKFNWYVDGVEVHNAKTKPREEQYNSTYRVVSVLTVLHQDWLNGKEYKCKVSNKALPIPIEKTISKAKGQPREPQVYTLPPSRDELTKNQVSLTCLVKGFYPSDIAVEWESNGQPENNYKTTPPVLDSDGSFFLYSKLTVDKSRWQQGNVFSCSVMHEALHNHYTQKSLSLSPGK
light: B1 light
modifications: N-linked glycan at Asn297 of the heavy chain (CHO-type, highly fucosylated); not carried by the letters
notes: IgG1/kappa Fc variant; EU numbering; also called A330I (CHO cell-derived); copies: 2 + 2
B5: YB2/0-CNTO 860 A330I/I332E (antibody, human IgG1, kappa)
heavy: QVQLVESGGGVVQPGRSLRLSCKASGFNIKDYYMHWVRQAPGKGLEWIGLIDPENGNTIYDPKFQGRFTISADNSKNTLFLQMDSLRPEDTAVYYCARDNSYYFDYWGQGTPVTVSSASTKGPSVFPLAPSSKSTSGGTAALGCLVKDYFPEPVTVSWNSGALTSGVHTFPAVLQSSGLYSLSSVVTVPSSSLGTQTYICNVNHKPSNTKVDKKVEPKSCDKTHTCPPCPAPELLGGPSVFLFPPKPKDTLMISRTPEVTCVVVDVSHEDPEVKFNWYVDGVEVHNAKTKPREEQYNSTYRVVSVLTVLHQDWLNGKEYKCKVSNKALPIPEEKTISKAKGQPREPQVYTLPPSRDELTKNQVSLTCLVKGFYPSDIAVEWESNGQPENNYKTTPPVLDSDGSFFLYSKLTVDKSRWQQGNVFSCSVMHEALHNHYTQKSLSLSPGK
light: B1 light
modifications: N-linked glycan at heavy chain Asn297 (YB2/0-type, low fucose); not carried by the letters
notes: IgG1/kappa Fc variant; stably expressed in YB2/0 cells (p4178/p2402); EU numbering; also called A330I/I332E (YB2/0 cell-derived); A330I/I332E from YB2/0 cells; copies: 2 + 2
B6: YB2/0-CNTO 860 A330I (antibody, IgG1)
heavy: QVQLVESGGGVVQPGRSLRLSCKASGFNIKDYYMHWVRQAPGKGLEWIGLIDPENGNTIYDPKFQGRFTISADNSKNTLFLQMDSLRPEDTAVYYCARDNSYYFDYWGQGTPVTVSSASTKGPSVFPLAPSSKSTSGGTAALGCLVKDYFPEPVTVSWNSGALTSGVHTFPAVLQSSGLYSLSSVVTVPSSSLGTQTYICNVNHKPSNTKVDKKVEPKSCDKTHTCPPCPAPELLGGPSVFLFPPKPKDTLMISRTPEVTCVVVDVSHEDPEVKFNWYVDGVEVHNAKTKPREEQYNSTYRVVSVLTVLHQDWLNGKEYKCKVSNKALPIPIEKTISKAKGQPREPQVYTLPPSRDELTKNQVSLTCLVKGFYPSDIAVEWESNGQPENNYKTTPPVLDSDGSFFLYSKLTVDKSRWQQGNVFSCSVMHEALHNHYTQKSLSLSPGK
light: B1 light
modifications: N-linked glycan at heavy chain Asn297 (YB2/0-type, low fucose); not carried by the letters
notes: IgG1/kappa Fc variant; stably expressed in YB2/0 cells (p4177/p2402); EU numbering; also called A330I (YB2/0 cell-derived); A330I mutant expressed in YB2/0 cells; copies: 2 + 2
B7: YB2/0-CNTO 860 V264I/I332E (antibody, human IgG1, kappa)
heavy: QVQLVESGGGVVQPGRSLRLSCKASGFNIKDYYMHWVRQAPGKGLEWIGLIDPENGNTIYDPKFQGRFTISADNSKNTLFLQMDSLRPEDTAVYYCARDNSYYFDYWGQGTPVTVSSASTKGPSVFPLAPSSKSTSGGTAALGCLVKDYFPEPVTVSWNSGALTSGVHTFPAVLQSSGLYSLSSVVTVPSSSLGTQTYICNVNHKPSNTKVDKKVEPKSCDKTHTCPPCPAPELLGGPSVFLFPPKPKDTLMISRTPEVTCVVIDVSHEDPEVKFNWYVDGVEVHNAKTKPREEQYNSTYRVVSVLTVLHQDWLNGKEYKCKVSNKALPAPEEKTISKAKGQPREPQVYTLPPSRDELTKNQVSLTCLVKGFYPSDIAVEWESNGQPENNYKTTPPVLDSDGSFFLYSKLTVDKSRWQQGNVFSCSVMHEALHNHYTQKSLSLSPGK
light: B1 light
modifications: N-linked glycan at heavy chain Asn297 (YB2/0-type, low fucose); not carried by the letters
notes: IgG1/kappa Fc variant; stably expressed in YB2/0 cells (p4180/p2402); EU numbering; also called V264I/I332E (YB2/0 cell-derived); copies: 2 + 2
B8: CHO-CNTO 860 I332E/A330I (antibody, human IgG1, kappa)
heavy: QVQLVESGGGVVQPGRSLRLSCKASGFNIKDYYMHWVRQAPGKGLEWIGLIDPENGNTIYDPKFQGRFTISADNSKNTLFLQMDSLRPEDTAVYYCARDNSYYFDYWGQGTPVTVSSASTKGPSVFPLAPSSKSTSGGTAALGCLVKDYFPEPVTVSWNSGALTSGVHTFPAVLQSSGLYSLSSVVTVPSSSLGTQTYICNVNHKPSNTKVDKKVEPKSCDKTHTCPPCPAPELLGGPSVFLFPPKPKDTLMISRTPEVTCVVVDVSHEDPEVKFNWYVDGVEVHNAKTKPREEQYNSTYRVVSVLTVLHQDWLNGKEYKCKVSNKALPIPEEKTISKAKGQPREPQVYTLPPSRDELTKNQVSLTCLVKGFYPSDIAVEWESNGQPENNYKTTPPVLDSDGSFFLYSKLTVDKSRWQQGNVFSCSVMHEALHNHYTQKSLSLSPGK
light: B1 light
modifications: Heavy chain N297 carries the CHO-type N-linked glycan (about 95% fucosylated); not carried by the letters.
notes: IgG1/kappa Fc variant; transiently expressed in CHO cells (p4185/p4146); EU numbering; also called A330I/I332E (CHO cell-derived); A330I/I332E variant from CHO cells; copies: 2 + 2
B9: YB2/0-CNTO 860 A330Y (antibody, human IgG1, kappa)
heavy: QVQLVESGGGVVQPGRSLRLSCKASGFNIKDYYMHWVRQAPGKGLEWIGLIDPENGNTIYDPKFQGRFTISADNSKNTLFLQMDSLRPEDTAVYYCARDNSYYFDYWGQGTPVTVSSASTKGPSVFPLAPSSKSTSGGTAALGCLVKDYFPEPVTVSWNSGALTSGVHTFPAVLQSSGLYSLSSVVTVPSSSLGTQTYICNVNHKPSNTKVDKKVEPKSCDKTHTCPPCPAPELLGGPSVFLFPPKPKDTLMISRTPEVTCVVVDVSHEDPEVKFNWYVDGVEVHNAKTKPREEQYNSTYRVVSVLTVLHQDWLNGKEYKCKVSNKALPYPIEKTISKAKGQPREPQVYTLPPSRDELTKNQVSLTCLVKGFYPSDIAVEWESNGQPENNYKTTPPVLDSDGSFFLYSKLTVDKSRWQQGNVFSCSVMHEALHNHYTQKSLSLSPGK
light: B1 light
modifications: N-linked glycan at heavy chain Asn297 (YB2/0-type, low fucose); not carried by the letters
notes: IgG1/kappa Fc variant; stably expressed in YB2/0 cells (p4176/p2402); EU numbering; also called A330Y (YB2/0 cell-derived); copies: 2 + 2
B10: YB2/0-CNTO 860 I332E (antibody, human IgG1, kappa)
heavy: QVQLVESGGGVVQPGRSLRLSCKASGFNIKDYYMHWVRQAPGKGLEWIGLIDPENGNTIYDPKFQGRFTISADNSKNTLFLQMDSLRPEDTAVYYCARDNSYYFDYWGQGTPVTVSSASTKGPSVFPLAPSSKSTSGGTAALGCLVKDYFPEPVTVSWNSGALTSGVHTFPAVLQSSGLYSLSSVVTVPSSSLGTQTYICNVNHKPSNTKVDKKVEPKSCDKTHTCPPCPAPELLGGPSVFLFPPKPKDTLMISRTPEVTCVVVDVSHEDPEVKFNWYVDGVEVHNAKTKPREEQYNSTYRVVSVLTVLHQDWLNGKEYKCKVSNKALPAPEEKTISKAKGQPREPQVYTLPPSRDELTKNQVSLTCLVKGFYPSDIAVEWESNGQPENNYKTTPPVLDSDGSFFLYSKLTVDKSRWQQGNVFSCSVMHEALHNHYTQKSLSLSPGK
light: B1 light
modifications: Heavy chain N297 carries the YB2/0-type low-fucose N-linked glycan; not carried by the letters.
notes: IgG1/kappa Fc variant; stably expressed in YB2/0 cells (p4148/p2402), low-fucose glycan; EU numbering; also called I332E (YB2/0 cell-derived); I332E from YB2/0 cells; copies: 2 + 2
B11: YB2/0-CNTO 860 S239D/I332E (antibody, human IgG1, kappa)
heavy: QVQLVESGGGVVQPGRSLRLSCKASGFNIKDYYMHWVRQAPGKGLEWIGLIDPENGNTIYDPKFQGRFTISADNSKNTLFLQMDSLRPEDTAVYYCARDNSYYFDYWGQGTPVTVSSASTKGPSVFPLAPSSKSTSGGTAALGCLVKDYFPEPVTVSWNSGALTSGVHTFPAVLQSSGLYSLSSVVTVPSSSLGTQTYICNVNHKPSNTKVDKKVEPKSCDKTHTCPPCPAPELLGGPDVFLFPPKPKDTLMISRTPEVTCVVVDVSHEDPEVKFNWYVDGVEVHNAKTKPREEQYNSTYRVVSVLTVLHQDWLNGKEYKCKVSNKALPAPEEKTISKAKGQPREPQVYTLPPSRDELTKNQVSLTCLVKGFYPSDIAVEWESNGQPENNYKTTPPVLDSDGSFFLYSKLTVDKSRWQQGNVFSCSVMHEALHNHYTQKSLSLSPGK
light: B1 light
modifications: N-linked glycan at heavy chain Asn297 (YB2/0-type, low fucose); not carried by the letters
notes: IgG1/kappa Fc variant; stably expressed in YB2/0 cells (p4179/p2402); EU numbering; also called S239D/I332E (YB2/0 cell-derived); copies: 2 + 2
B12: CHO-CNTO 860 I332E/S239D (antibody, human IgG1, kappa)
heavy: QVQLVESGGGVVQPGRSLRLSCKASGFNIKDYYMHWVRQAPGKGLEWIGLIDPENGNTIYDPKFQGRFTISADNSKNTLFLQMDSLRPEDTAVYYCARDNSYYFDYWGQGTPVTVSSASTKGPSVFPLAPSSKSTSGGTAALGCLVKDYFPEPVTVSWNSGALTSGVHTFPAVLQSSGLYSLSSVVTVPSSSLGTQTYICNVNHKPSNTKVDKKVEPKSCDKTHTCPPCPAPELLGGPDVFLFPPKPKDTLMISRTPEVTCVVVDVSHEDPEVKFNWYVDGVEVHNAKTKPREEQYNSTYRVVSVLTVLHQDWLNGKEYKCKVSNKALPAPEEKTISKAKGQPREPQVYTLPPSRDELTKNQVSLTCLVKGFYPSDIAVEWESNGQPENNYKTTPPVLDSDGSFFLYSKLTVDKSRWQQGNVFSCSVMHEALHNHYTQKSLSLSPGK
light: B1 light
modifications: Heavy chain N297 carries the CHO-type N-linked glycan (about 95% fucosylated); not carried by the letters.
notes: IgG1/kappa Fc variant; transiently expressed in CHO cells (p4186/p4146); EU numbering; also called S239D/I332E (CHO cell-derived); copies: 2 + 2
B13: CHO-CNTO 860 WT (antibody, human IgG1, kappa)
heavy: not shown
light: B1 light
modifications: N-linked glycan at heavy chain Asn297 (CHO-type, highly fucosylated); not carried by the letters
notes: Anti-human tissue factor human IgG1/kappa; transiently expressed in CHO cells (plasmids p4145/p4146; CHO Abs typically 95% fucosylated), purified by protein A; also called CNTO 860 WT from CHO cells; WT (CHO cell-derived); copies: 2 + 2

The binders below were run against T1, recombinant polyhistidine tagged mouse … (assay: ELISA, His-tagged mouse receptor captured on copper-coated plate).
Protocol: (§1) Commercially-available recombinant polyhistidine tagged mouse FcγRI, FcγRII, FcγRIII, and FcγRIV (R&D Systems) were diluted to 1 μg/ml in PBS and 100 μl/well was captured onto copper-coated plates (Pierce) overnight at 4° C. Plates were washed three times with wash buffer (0.15M NaCl, 0.02% Tween 20). Non-specific binding was blocked using 200 μl/well SuperBlock (Pierce) for 15 minutes at room temperature. Plates were washed three times as above. […] Plates were washed three times as above to remove unbound mAb. CNTO 860 variants that bound to plated receptors were detected using 100 μl/well HRP-labeled goat F(ab′)₂ anti-human IgG F(ab′)₂ (Jackson ImmunoResearch) diluted 1:5,000 in PBS incubated at room temperature for 1 hour. Plates were washed five times using wash buffer as above, and developed using 100 μl/well TMB Stable Stop substrate (Fitzgerald Industries) stopped with 0.5M HCl. Absorbance was detected at 450 nm.
(§2) All binding assays were in an ELISA format, with recombinant soluble receptor captured on coated EIA plates.

| ECOD1 (concentration required for an O.D. value of 1.0) | Binder |
| --- | --- |
| 12000 ng/mL | B1 |
| 4000 ng/mL | B2 |
| 5000 ng/mL | B3 |
| 90000 ng/mL | B4 |
| 10000 ng/mL | B5 |
| 25000 ng/mL | B6 |
| 3000 ng/mL | B7 |
| 3000 ng/mL | B8 |
| 4000 ng/mL | B9 |
| 5000 ng/mL | B10 |
| 1900 ng/mL | B11 |
| 1700 ng/mL | B12 |

These binders were tested against T2, recombinant polyhistidine tagged mouse … in the same assay as above.
Protocol: as §1, §2

| ECOD1 (concentration required for an O.D. value of 1.0) | Binder |
| --- | --- |
| 4000 ng/mL | B13 |
| 4000 ng/mL | B1 |
| 1600 ng/mL | B2 |
| 4000 ng/mL | B3 |
| 12000 ng/mL | B4 |
| 3000 ng/mL | B5 |
| 8000 ng/mL | B6 |
| 6000 ng/mL | B7 |
| 800 ng/mL | B8 |
| 6500 ng/mL | B9 |
| 600 ng/mL | B10 |
| 2800 ng/mL | B11 |
| 1100 ng/mL | B12 |

What follows are binders tested against T3, recombinant polyhistidine tagged mouse … in the same assay as above.
Protocol: as §1, §2

| ECOD1 (concentration required for an O.D. value of 1.0) | Binder |
| --- | --- |
| 60 ng/mL | B13 |
| 30 ng/mL | B1 |
| 13 ng/mL | B2 |
| 100 ng/mL | B3 |
| 130 ng/mL | B4 |
| 7 ng/mL | B5 |
| 15 ng/mL | B6 |
| 7 ng/mL | B7 |
| 18 ng/mL | B8 |
| 30 ng/mL | B9 |
| 7 ng/mL | B10 |
| 7 ng/mL | B11 |
| 11 ng/mL | B12 |

The binders below were run against T4, recombinant polyhistidine tagged mouse … in the same assay as above.
Protocol: as §1, §2

| ECOD1 (concentration required for an O.D. value of 1.0) | Binder |
| --- | --- |
| 4000 ng/mL | B13 |
| 3000 ng/mL | B1 |
| 1500 ng/mL | B2 |
| 2700 ng/mL | B3 |
| 8000 ng/mL | B4 |
| 3000 ng/mL | B5 |
| 7000 ng/mL | B6 |
| 1600 ng/mL | B7 |
| 600 ng/mL | B8 |
| 6000 ng/mL | B9 |
| 700 ng/mL | B10 |
| 6000 ng/mL | B11 |
| 900 ng/mL | B12 |

Each binder was assayed against T5, recombinant human His-tagged FcγRI (extracellular domain, R&D Systems #1257-FC-050) (human, UniProt P12314 16-292) (assay: ELISA, His-tagged FcγRI captured on HisGrab plate).
T5 construct: extracellular domain; Bought; also called CD64; recombinant, soluble, human FcγRI
Protocol: FcγRI (CD64) ELISA —50 μl of a 1 μg/ml solution of recombinant human His-tagged FcγRI (extracellular domain, R&D Systems #1257-FC-050) in ELISA buffer (PBS, pH 7.4, 4 mg/ml BSA, 0.01% Tween-20) was added to each well of HisGrab 96 well plates (Pierce #15142) (Powers G., Notebook 9006, pp. 166-168, 180-181). The plate was incubated with shaking for 3 hours. The plates were washed 3× with 300 μl of wash buffer (PBS, 0.01% Tween-20) on a plate washer. Serial dilutions of the CNTO860 antibody Fc-variant samples were made in ELISA buffer and 50 μl per well of each titration were added in duplicate to the FcγRI-coated plates. The plates were incubated with shaking for 1 hour. The plates were washed 3× with 300 μl of wash buffer on a plate washer. 50 μl of a 1:10,000 dilution of HRP-labeled goat F(ab′)₂ anti-human IgG F(ab′)₂ (Jackson Immunoresearch # 109-036-097) in ELISA buffer was added to each well. The plates were incubated with shaking for 30 minutes. The plates were washed 3× with 300 μl of wash buffer on the plate washer. 50 μl per well TMB substrate (RDI #RDI-TMBSU-1L) was added to each well and developed for 5 minutes. The reaction was stopped by adding 100 μl 0.2 N sulfuric acid. The plates were read at OD450 on an Envision plate reader.

T5 sequence (P12314 16-292): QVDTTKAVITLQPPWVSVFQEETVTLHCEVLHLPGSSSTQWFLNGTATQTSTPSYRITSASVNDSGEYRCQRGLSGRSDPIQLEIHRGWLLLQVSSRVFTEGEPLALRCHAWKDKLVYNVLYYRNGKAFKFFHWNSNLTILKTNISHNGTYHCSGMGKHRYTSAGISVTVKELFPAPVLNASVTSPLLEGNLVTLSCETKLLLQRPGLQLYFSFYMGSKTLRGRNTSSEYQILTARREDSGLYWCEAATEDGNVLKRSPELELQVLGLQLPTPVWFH

| concentration (ng/ml) required for an O.D. value of 1.0 | Binder |
| --- | --- |
| 480 ng/mL | B13 |
| 420 ng/mL | B1 |
| 300 ng/mL | B2 |
| 420 ng/mL | B3 |
| 750 ng/mL | B4 |
| 310 ng/mL | B5 |
| 570 ng/mL | B6 |
| 480 ng/mL | B7 |
| 420 ng/mL | B8 |
| 420 ng/mL | B9 |
| 300 ng/mL | B10 |
| 300 ng/mL | B11 |
| 480 ng/mL | B12 |
